# According to patent US7799901B2, “Modulators of the function of FAS receptors and other proteins” (Yeda Research and Development Co. Ltd., priority 1995, dated 2010):
# B1: MORT-1: Mediator of Receptor-induced Toxicity; protein binding the intracellular domain of FAS-R, SEQ ID NO:2 (protein)
# chain: VNQAPECRFGGGILGPLGKRRDLARASEPRTEGARRAGPQPRPLADPAMDPFLVLLHSVSSSLSSSELTELKFLCLGRVVKRKLERVQSGLDLFSMLLEQNDLEPGHTELLRELLASLRRHDLLRRVDDFEAGAAAGAAPGEEDLCAAFNVICDNVGKDWRRLARQLKVSDTKIDSIEDRYPRNLTERVRESLRIWKNTEKENATVAHLVGALRSCQMNLVADLVQEVQQARDLQNRSGAMSPMSWNSDASTSEAS
# B2: MACHβ1: MACH isoform, cDNA SEQ ID NO: 4, amino acid SEQ ID NO: 5; lacks the CED3/ICE homology region (protein)
# chain: MDFSRNLYDIGEQLDSEDLASLKFLSLDYIPQRKQEPIKDALMLFQRLQEKRMLEESNLSFLKELLFRINRLDLLITYLNTRKEEMERELQTPGRAQISAYRVMLYQISEEVSRSELRSFKFLLQEEISKCKLDDDMNLLDIFIEMEKRVILGEGKLDILKRVCAQINKSLLKIINDYEEFSKERSSSLEGSPDEFSNDFGQSLPNEKQTSGILSDHQQSQFCKSTGESAQTSQH
# Tests used:
# [1] = system: HeLa cells; test: Cytotoxicity triggered by induced expression of MORT-1 in HeLa cells; assay type: cell-based, human; conditions: tetracycline-controlled transient expression; neutral red uptake or secreted placental alkaline phosphatase
# Description: MORT-1, Fas-IC, p55-IC and luciferase cDNAs were inserted into a tetracycline-controlled expression vector and transfected to HtTA-1 cells (a HeLa cell line) (Gossen and Bujard, 1992) together with the secreted placental alkaline phosphatase cDNA, placed under control of SV40 promoter (the pSBC-2 vector, Dirks et al, 1993). Cell death was assessed 40 hours after transfection, either by the neutral-red uptake assay (Wallach, 1984) or, for assessing specifically the death in those cells that express the transfected cDNAs, by determining the amounts of placental alkaline phosphatase (Berger et al, 1988) secreted to the growth medium at the last 5 hours of incubation.
# High expression of p55-IC results in triggering of a cytocidal effect (Boldin et al, 1995). The expression of Fas-IC in HeLa cells also has such an effect, though to a lower extent, which could be detected only with the use of a sensitive assay. The ligand independent triggering of cytocidal effects in cells transfected with MORT-1, as well as human p55-IC and FAS-IC, was thus analyzed. The effect of transient expression of MORT-1, human Fas-IC, human p55-IC, or luciferase that served as a control, on the viability of HeLa cells was assessed using a tetracycline-controlled expression vector. […]
# [2] = system: Lamin; test: Two-hybrid β-galactosidase expression filter assay in SFY526 yeast, DNA-binding domain hybrid Lamin; conditions: specificity test
# Excerpt: To isolate proteins interacting with the intracellular domain of the FAS-R, the yeast two-hybrid system was used (Fields and Song, 1989). […] In this system, the genes for the candidate interacting proteins are cloned into separate expression vectors. In one expression vector, the sequence of the one candidate protein is cloned in phase with the sequence of the GAL4 DNA-binding domain to generate a hybrid protein with the GAL4 DNA-binding-domain, and in the other vector, the sequence of the second candidate protein is cloned in phase with the sequence of the GAL4 activation domain to generate a hybrid protein with the GAL4-activation domain. The two hybrid vectors are then co-transformed into a yeast host strain having a lacZ or HIS3 reporter gene under the control of upstream GAL4 binding sites. […]
# The yeast two-hybrid test was further applied to evaluate the specificity of binding of MACH to MORT-1, in particular, to define the region in MORT-1 to which MACH binds, as well as to determine which of the MACH ORFs interacts with MORT-1, the procedures being as set forth herein above in Examples 1 and 2. Briefly, various MORT-1 and MACH constructs were prepared for testing the interaction of the proteins encoded by the Gal4 DNA-binding domain and activation domain constructs within transfected SFY526 yeast cells as assessed by the β-galactosidase expression filter assay. […]
Molecule,cell death on expression in HeLa cells [1],development of color (interaction with DNA-binding domain hybrid) [2]
B1,significant cell death,–
B2,–,−−− (“−−−” indicates the lack of development of color within 24 hrs. of the assay)
